# Experimental data as given in patent publication US7595158B2, “Bcl2L12 polypeptide activators and inhibitors” (Dana-Farber Cancer Institute, Inc., priority 2003, dated 2009).
# Columns and labels:
# [1] = system: Ink4a/Arf deficient astrocytes; assay: Cell growth of transfected Ink4a/Arf deficient astrocytes over six days; format: cell-based, mouse; conditions: LacZ about 1.5×10^6 cells
# Protocol: Ink4a/Arf deficient astrocytes transfected with a vector encoding either LacZ, Bcl2L12-V5, or EGFR* polypeptides were cultured for six days. Each day, the number of cells in each culture was determined. In addition, stably transfected cells were harvested and assessed for the phosphorylation of Erk1/2 (p44/p42).
# [2] = system: BJAB and SKW6.4 cells; assay: Apoptosis of lymphoid cells stimulated with anti-CD95 or STS (FACS scatter); format: cell-based; conditions: anti-CD95 or STS 24 hours, GFP positive cells
# Protocol: In addition, BJAB and SKW6.4 cells were co-transfected (1:3 ratio) with a vector encoding GFP and either an empty vector control or a vector encoding Bcl2L12-V5. After 24 hours, the transfected cells were stimulated with anti-CD95 or STS for 24 hours at different concentrations. The cells were analyzed by FACS. A gate was set only on GFP positive cells. Apoptosis was defined as an increase in sideward scatter and a decrease in forward scatter. SKW6.4 cells are type I B cells, while BJAB cells are type II B cells.
# [3] = system: Ink4a/Arf deficient astrocytes; assay: Colony formation of Ink4a/Arf deficient astrocytes after gamma-irradiation; format: cell-based, mouse; conditions: γ-irradiated 5 Gy, ten days, 1000 cells/10 cm dish; vector only about 17
# Protocol: The ability of Bcl2L12 polypeptide to promote colony formation was assessed. Briefly, 1000 cells were seeded in a 10 cm dish and γ-irradiated (5 Gy). After culturing the irradiated cells for ten days, the cells were stained with crystal violet, and the number of colonies was counted. Bcl2L12-V5 polypeptide expression promoted colony formation in Ink4a/Arf deficient astrocytes upon γ-irradiation (about 27 colonies for cells expressing Bcl2L12-V5 polypeptides compared to about 17 colonies for control vector only cells; 1000 cells/10 cm dish).
# [4] = system: Ink4a-/-/Arf-/- astrocytes; assay: Growth of transduced Ink4a-/-/Arf-/- astrocytes under normal and low-serum conditions; format: cell-based, mouse
# Excerpt: The Bcl2L12-V5, R-RAS, and IRF3 nucleic acid sequences were cloned into expression vectors. Controls included expression vectors containing EGFR or Bcl2 nucleic acid sequences. The encoded polypeptides were expressed in primary astrocytes and tested for cell growth, transformation, and apoptosis activities. Primary astrocytes deficient for Ink4a/Arf (e.g., Ink4a^−/−/Arf^−/− astrocytes) were used given the prominence of this tumor suppressor lesion in advanced human gliomas. The following was performed to assess growth characteristics under normal growth conditions. Mouse Ink4a^−/−/Arf^−/− astrocytes were retro-virally transduced with pBabe vector alone; Bcl2L12-V5 nucleic acid; R-RAS nucleic acid; IRF3 nucleic acid; EGFR* nucleic acid; or Bcl2 nucleic acid. After retro-viral infection, transduced mouse Ink4a^−/−/Arf^−/− astrocytes were subjected to puromycin (2 μg/mL) selection for four days and plated at a density of 1×10^5 cells/10 cm dish using 10% FBS-DMEM medium. All transduced Ink4a^−/−/Arf^−/− astrocytes were counted each day for five days to determine cell numbers (mean±S.D.; three independent experiments with each being performed in triplicate).
# The following was performed to assess growth characteristics under low-serum growth conditions. Retro-virally transduced mouse Ink4a^−/−/Arf^−/− astrocytes (1×10^6 cells/10 cm dish) were allowed to attach onto plates in 10% FBS-DMEM medium for five hours. After five hours, the medium was changed to 0.1% FBS-DMEM, and the cells were allowed to grow for three days. After three days in 0.1% FBS, the cells were counted to determine cell numbers (mean±S.D.; three independent experiments with each being performed in triplicate). The number of Ink4a^−/−/Arf^−/− astrocytes infected with pBabe-vector was set to 1.0.
# [5] = system: Ink4a/Arf deficient astrocytic cell cultures; assay: Nuclear swelling (Nicoletti method) in Ink4a/Arf deficient astrocytes; format: cell-based, mouse; conditions: STS 500 nM 24 hours; vector only about 42 percent
# Protocol: To quantify nuclear swelling in Ink4a/Arf deficient astrocytic cell cultures, cells transfected with vector only or a vector encoding a Bcl2L12-V5 polypeptide were treated with or without STS (500 nM) for 24 hours, lysed, and stained with Propidium Iodide (Nicoletti method). Nuclei with increased forward scatter (i.e., increased size) were defined as swollen, and the number of those nuclei relatively to the total number of nuclei was expressed as the percent swelling.
# [6] = system: astrocytes; assay: Plasma membrane integrity (SYTOX Green) and LEHDase activity in STS-treated astrocytes; format: cell-based; conditions: range of STS concentrations
# Protocol: To assess and quantify plasma membrane integrity, vector or Bcl2L12-V5 transfected astrocytes were treated with or without STS (500 nM) for 24 hours and stained with a combination of Hoechst (a DNA intercalating dye that enters living as well as apoptotic or necrotic cells) and SYTOX Green (a green fluorescent dye that only enters cells with a disintegrated plasma membrane). FIG. 4B is a picture of STS treated and untreated cells transfected with either a control vector (pBabe) of a vector encoding a Bcl2L12-V5 polypeptide.
# In addition, the green cells were counted over a range of different STS concentration (FIG. 4C; bars), and caspase-9 activity was determined by quantifying LEHDase activity in the corresponding cell lysates (FIG. 4C; histogram). […] SYTOX green positive cells were also quantified using a FACS based analysis assessing the increase in green fluorescence.
# [7] = system: Ink4a/Arf deficient embryonic fibroblasts; assay: Colony formation of Ink4a/Arf deficient embryonic fibroblasts; format: cell-based; conditions: about 300 cells per 6 well plate; vector only about 13
# Protocol: In addition, Ink4a/Arf deficient embryonic fibroblasts were transfected with vector only or a vector encoding a Bcl2L12 polypeptide or Bcl2 polypeptide. Once the cells were transfected, the number of colonies formed in cultures (about 300 cells per 6 well plate) was determined. Expression of Bcl2L12 polypeptide promoted growth of Ink4a/Arf deficient embryonic fibroblasts. […] In a similar experiment, Ink4a/Arf deficient embryonic fibroblasts were co-transfected with a vector encoding H-RasV12 and either a vector only, vector encoding Bcl2L12 polypeptide, or a vector encoding Bcl2 polypeptide. Once the cells were transfected, the number of foci formed per transfection was determined. Expression of Bcl2L12 polypeptide or Bcl2 polypeptide in combination with H-RasV12 expression promoted growth of Ink4a/Arf deficient embryonic fibroblasts (about 1.5 to 2 fold more foci per transfection for cells expressing Bcl2L12 polypeptide or Bcl2 polypeptide compared to control pBabe cells).
# [8] = system: Ink4a-/-/Arf-/- astrocytes; assay: Annexin V staining of STS-treated Ink4a/Arf deficient astrocytes (FACS); format: cell-based, mouse
# Protocol: The following experiments were performed to determine whether the Bcl2L12 polypeptide influenced cell survival or apoptosis. Ink4a^−/−/Arf^−/− astrocytes retro-virally infected with vector alone (pBabe) or vector containing Bcl2 nucleic acid, Bcl2L12-V5 nucleic acid, R-RAS nucleic acid, or IRF3 nucleic acid were […] After this one day incubation, the cells were stained with annexin V (Roche). Annexin V-positive cells were determined by FACScan analysis (mean±S.D.; three independent experiments with each being performed in triplicate).
# After STS treatment, the cells were analyzed for apoptosis by assessing annexin V binding and DNA fragmentation using a FACS based analysis.
molecule,measurement,setting,value
"Bcl2L12-V5: Bcl2L12 polypeptide having the V5 epitope tag, ectopically expressed from pBabe-Bcl2L12-V5 vector; human amino acid sequence 1-334 (protein, left off: small tags and cut ends) MGRPAGLFPPLCPFLGFRPEACWERHMQIERAPSVPPFLRWAGYRPGPVRRRGKVELIKFVRVQWRRPQVEWRRRRWGPGPGASMAGSEELGLREDTLRVLAAFLRRGEAAGSPVPTPPRSPAQEEPTDFLSRLRRCLPCSLGRGAAPSESPRPCSLPIRPCYGLEPGPATPDFYALVAQRLEQLVQEQLKSPPSPELQGPPSTEKEAILRRLVALLEEEAEVINQKLASDPALRSKLVRLSSDSFARLVELFCSRDDSSRPSRACPGPPPPSPEPLARLALAMELSRRVAGLGGTLAGLSVEHVHSFTPWIQAHGGWEGILAVSPVDLNLPLD",cell number on day 6,[1],about 3.8×10^6 cells
same,apoptosis,[2],promoted apoptosis
same,number of colonies,[3],about 27 colonies
same,resistance to growth inhibition by low serum culture,"[4]; 0.1% FBS, three days, vs pBabe",significantly resistant to growth inhibition
same,growth / proliferation under normal growth conditions,"[4]; over-expression, 10% FBS, vs vector only",significant increase in growth
same,swelling (nuclei),[5],about 67%
same,SYTOX Green positivity,[6],significantly increased
same,caspase-9 activity (LEHDase),[6],dramatically reduced
same,number of colonies,[7],about 26 colonies
same,annexin-V positive cells,"[8]; 100 nM staurosporine one day, control cultures about 17-22 percent",6-7%
same,annexin V+/PI- cells,"[8]; 500 nM STS, pBabe about 20 percent",about 6%
